2 molecules from patent publication US20210317186A1 (BRIGHAM AND WOMEN S HOSPITAL, published 2021) can be followed below.

For data set [1], the target named is T1, endogenous CD5L (mouse; in serum or secreted by bone marrow derived dendritic cells) (mouse, UniProt Q9QWK4 22-352).
T1 construct: also called natural CD5L; AIM
T1 sequence (looked up): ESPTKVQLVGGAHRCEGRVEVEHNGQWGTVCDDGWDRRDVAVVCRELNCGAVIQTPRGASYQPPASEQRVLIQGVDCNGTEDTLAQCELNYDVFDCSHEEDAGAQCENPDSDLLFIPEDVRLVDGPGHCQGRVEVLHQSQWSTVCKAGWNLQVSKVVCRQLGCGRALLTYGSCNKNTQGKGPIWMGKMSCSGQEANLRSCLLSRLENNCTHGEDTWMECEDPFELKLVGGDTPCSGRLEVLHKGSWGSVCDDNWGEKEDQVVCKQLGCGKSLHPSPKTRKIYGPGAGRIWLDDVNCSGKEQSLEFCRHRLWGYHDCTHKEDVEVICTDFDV
Put plainly: sandwich ELISA on mouse serum, capture with anti-IL-12 p40, detection with anti-CD5L. The method, then: Serum was collected kinetically from wildtype and Cd5l^{-/-} mice with DSS-induced colitis (2% DSS in drinking water for 6 days followed by 7 days of normal water) and the level of CD5L:p40 was measured using an ELISA assay. In the ELISA assay anti-IL-12 p40 was used to capture the heterodimer and enzyme linked anti-CD5L was used to detect the heterodimer.
Preliminary screens were conducted to determine what signals could induce CD5L homodimer and CD5L:p40 heterodimer. In particular, bone marrow derived dendritic cells were stimulated with TLR ligands for 24 hours and the supernatant was analyzed for CD5L:p40 secretion by ELISA.

Data set [2] concerns the molecule itself. Put plainly: size exclusion chromatography (Superdex S200) of His-tagged CD5L from 293E supernatant. The method, then: Recombinant protein CD5L monomer and homodimer was purified from the supernatant of 293E cells transfected with a CD5L expression vector. Recombinant mCD5L:p40 was recovered from the supernatant of 293E cells transfected with the CD5L:p40 expression vector. After harvesting transfected 293E cells by centrifugation, the protein was affinity purified from the supernatant using Ni Sepharose 6 Fast Flow resin (GE Healthcare). After binding the protein to resin, the resin was washed with 20 mM Tris, 0.3M NaCl, pH 8.0 and the protein eluted using 20 mM Tris, 0.3M NaCl, 0.4M Imidazole, pH 8.0. The protein was further polished by a […] sizing exclusion column (GE Healthcare) in buffer 10 mM NaHPO4, 0.15M NaCl, pH 7.2.
On the technique in general: In gel filtration, larger molecules generally elute earlier.

Where a chain is given by its changes, count along the chain named.

B1: endogenous p40 (IL-12 p40, Il12b; mouse) (ligand, UniProt P43432 23-335, looked up)
chain: MWELEKDVYVVEVDWTPDAPGETVNLTCDTPEEDDITWTSDQRHGVIGSGKTLTITVKEFLDAGQYTCHKGGETLSHSHLLLHKKENGIWSTEILKNFKNKTFLKCEAPNYSGRFTCSWLVQRNMDLKFNIKSSSSSPDSRAVTCGMASLSAEKVTLDQRDYEKYSVSCQEDVTCPTAEETLPIELALEARQQNKYENYSTSFFIRDIIKPDPPKNLQMKPLKNSQVEVSWEYPDSWSTPHSYFSLKFFVRIQRKKEKMKETEEGCNQKGAFLVEKTSTEVQCKGGNVCVQAQDRYYNSSCSKWACVPCRVRS
notes: also called interleukin 12B
Turning to B1, the binding result in data set [1] is on record as “binds”.

B2: recombinant CD5L with His tag at C-terminus (mouse, mCD5L) (ligand)
chain: T1 sequence (looked up) with N176S
notes: Made by Biolegend in 293E cells; The transfection gave a monomer and a homodimer fraction on size exclusion; also called soluble CD5L; sCD5L; not shown: His tag at C-terminus
For B2, the binding result in data set [2] is reported as “binds”.
